{"source": "patent US20110269938A1", "about": "(COMMONWEALTH SCIENTIFIC AND INDUSTRIAL RESEARCH ORGANISATION, published 2011)", "key": {"[1]": {"biological_target": "the molecule itself", "test": "self-association of familial mutation variants"}, "[2]": {"biological_target": "the molecule itself", "test": "Western blot of periplasmic fraction, self-association"}, "[3]": {"biological_target": "the molecule itself", "test": "Western blot of periplasmic fraction (self-association)"}}, "data": [{"protein": "Aβ-IgNAR 37F-2 (Asp23Asn) (VNAR, also called familial mutant Asp23Asn) VNAR: AWVDQTPRTATKETGESLTINCVLRDASFELKDTGWYRTKLGSTNEQSISIGGRYVETVNKGSKSFSLRISDLRVEDSGTYKCQAFYVFFAENVGSNKGAIIGLMVGGVVIGGEKGAGTALTVKA", "values": [{"measurement": "binding result", "setting": "[1]", "result": "binds"}]}, {"protein": "Aβ-IgNAR 37K-1 (Glu22Gln) (VNAR, also called familial mutant Glu22Gln) VNAR: AWVDQTPRTATKETGESLTINCVLRDASFELKDTGWYRTKLGSTNEQSISIGGRYVETVNKGSKSFSLRISDLRVEDSGTYKCQAFYVFFAQDVGSNKGAIIGLMVGGVVIGGEKGAGTALTVKA", "values": [{"measurement": "binding result", "setting": "[1]", "result": "binds"}]}, {"protein": "Aβ-IgNAR-G3 (VNAR, No crystals obtained; also called 37A-1; glycine-3 version) VNAR: AWVDQTPRTATKETGESLTINCVLRDASFELKDTGWYRTKLGSTNEQSISIGGRYVETVNKGSKSFSLRISDLRVEDSGTYKCQAFYGLVFFAEDVGSNKGAIIGLMVGGVVIAGGGEKGAGTALTVKA", "values": [{"measurement": "binding result", "setting": "[2]", "result": "binds"}]}, {"protein": "Aβ-IgNAR 37L-2 (Ala21Gly) (VNAR, also called familial mutant Ala21Gly) VNAR: AWVDQTPRTATKETGESLTINCVLRDASFELKDTGWYRTKLGSTNEQSISIGGRYVETVNKGSKSFSLRISDLRVEDSGTYKCQAFYVFFGEDVGSNKGAIIGLMVGGVVIGGEKGAGTALTVKA", "values": [{"measurement": "binding result", "setting": "[1]", "result": "binds"}]}, {"protein": "Aβ-IgNAR 37R-1 (ΔGlu22) (VNAR, also called familial mutant ΔGlu22) VNAR: AWVDQTPRTATKETGESLTINCVLRDASFELKDTGWYRTKLGSTNEQSISIGGRYVETVNKGSKSFSLRISDLRVEDSGTYKCQAFYVFFADVGSNKGAIIGLMVGGVVIGGEKGAGTALTVKA", "values": [{"measurement": "binding result", "setting": "[1]", "result": "binds"}]}, {"protein": "Aβ-IgNAR-G6 (VNAR, No crystals obtained; also called 37Q-6; glycine-6 version) VNAR: AWVDQTPRTATKETGESLTINCVLRDASFELKDTGWYRTKLGSTNEQSISIGGRYVETVNKGSKSFSLRISDLRVEDSGTYKCQAFYGGGLVFFAEDVGSNKGAIIGLMVGGVVIAGGGGEKGAGTALTVKA", "values": [{"measurement": "binding result", "setting": "[2]", "result": "binds"}]}, {"protein": "IgNAR single variable domain antibody 12Y-2 (VNAR, Scaffold without Aβ insert, used as the monomeric control; also called IgNAR wt; wild type IgNAR) VNAR: AWVDQTPRTATKETGESLTINCVLRDASFELKDTGWYRTKLGSTNEQSISIGGRYVETVNKGSKSFSLRISDLRVEDSGTYKCQAFYSLPLGDYNYSLLFRGEKGAGTALTVKA", "values": [{"measurement": "binding result", "setting": "[3]", "result": "no binding"}]}]}
